Consider one molecule from article PMC4627807, “Klotho Regulates 14-3-3ζ Monomerization and Binding to the ASK1 Signaling Complex in Response to Oxidative Stress” (PLoS ONE, 2015).

For experiment [1], the target named is T1, 14-3-3ζ (human (endogenous in HEK 293), UniProt P63104 1-245).
T1 construct: 14-3-3ζ, endogenous in HEK 293 cells; Klotho treatment of the cells raises phosphorylation at Ser-58 and the monomer level; the phosphorylated form was not isolated as a molecule of its own; also called 14-3-3zeta; endogenous 14-3-3ζ; source: endogenous, HEK 293 lysate
T1 sequence (looked up): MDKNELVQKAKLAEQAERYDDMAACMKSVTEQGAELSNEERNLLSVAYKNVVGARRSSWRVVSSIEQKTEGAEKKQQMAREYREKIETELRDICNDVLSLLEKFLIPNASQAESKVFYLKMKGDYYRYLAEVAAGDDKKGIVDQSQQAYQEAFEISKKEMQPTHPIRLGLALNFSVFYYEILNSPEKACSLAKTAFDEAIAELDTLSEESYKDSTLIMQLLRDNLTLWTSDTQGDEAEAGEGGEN
Nature of the experiment: co-IP; endogenous proteins; HEK 293 lysate precipitated with 14-3-3ζ antibody, protein A agarose; Trx by Western blot; cells treated with buffer, 200 pM Klotho or NAC for 40 min; Trx released from the beads only with DTT, 2-ME or THP. The settings on record: partners not purified.

Experiment [2] concerns the target GST-tagged 14-3-3ζ dimer deficient mutant (Dm) (UniProt P63104). Nature of the experiment: pull-down; lysates of HEK 293 cells transfected with GST-14-3-3ζ Wt or Dm adsorbed onto glutathione sepharose, binding buffer 20 mM Tris-Cl pH 7.5, 2 mM EDTA, 1 mM EGTA, 80 mM NaCl; endogenous Trx by Western blot; cells treated with buffer or secreted Klotho for 40 min.

B1: thioredoxin (Trx) (natural protein, human (endogenous in HEK 293), UniProt P10599 1-105, looked up)
chain: MVKQIESKTAFQEALDAAGDKLVVVDFSATWCGPCKMIKPFFHSLSEKYSNVIFLEVDVDDCQDVASECEVKCMPTFQFFKKGQKVGEFSGANKEKLEATINELV
notes: thioredoxin (Trx), endogenous in HEK 293 cells; active site cysteines named as Cys32/35; Detected by Western blot or iCE with a Trx antibody; source: endogenous, HEK 293 lysate
Take B1: the “fold increase of bound Trx, Klotho-treated versus buffer-treated cells” value in experiment [1] was around 2 fold. The molecule also displayed a fold increase of bound Trx relative to 14-3-3ζwt in experiment [2] of 2 fold.
